The subject of this series is MtlR (Pseudomonas fluorescens DSM 50106). As to the kind of experiment: EMSA. The conditions noted are these: 1x shift buffer A: 10 mM Tris-HCl pH 7.0, 5% glycerol, 1 mM TCEP, 50 ug/ml salmon sperm DNA, 4% TEG, 2 mM D-mannitol (absent in buffer B), 30 min on ice, gel ….

On to PCR 210 (wild-type PmtlE operator), for which the Kd is 0.0308 µM (with D-mannitol, kdiss 1.1e-4 s-1, t1/2 112 min) and 0.0326 µM (without mannitol, kdiss 1.2e-4 s-1, t1/2 99 min).

Values taken from PMC4514859.
